# Assay results: patent publication US20060024313A1 (published 2006)
# B1: DPP-IV H750E mutant (enzyme, human, UniProt P27487 39-766, looked up)
# chain: SRKTYTLTDYLKNTYRLKLYSLRWISDHEYLYKQENNILVFNAEYGNSSVFLENSTFDEFGHSINDYSISPDGQFILLEYNYVKQWRHSYTASYDIYDLNKRQLITEERIPNNTQWVTWSPVGHKLAYVWNNDIYVKIEPNLPSYRITWTGKEDIIYNGITDWVYEEEVFSAYSALWWSPNGTFLAYAQFNDTEVPLIEYSFYSDESLQYPKTVRVPYPKAGAVNPTVKFFVVNTDSLSSVTNATSIQITAPASMLIGDHYLCDVTWATQERISLQWLRRIQNYSVMDICDYDESSGRWNCLVARQHIEMSTTGWVGRFRPSEPHFTLDGNSFYKIISNEEGYRHICYFQIDKKDCTFITKGTWEVIGIEALTSDYLYYISNEYKGMPGGRNLYKIQLSDYTKVTCLSCELNPERCQYYSVSFSKEAKYYQLRCSGPGLPLYTLHSSVNDKGLRVLEDNSALDKMLQNVQMPSKKLDFIILNETKFWYQMILPPHFDKSKKYPLLLDVYAGPCSQKADTVFRLNWATYLASTENIIVASFDGRGSGYQGDKIMHAINRRLGTFEVEDQIEAARQFSKMGFVDNKRIAIWGWSYGGYVTSMVLGSGSGVFKCGIAVAPVSRWEYYDSVYTERYMGLPTPEDNLDHYRNSTVMSRAENFKQVEYLLIHGTADDNVHFQQSAQISKALVDVGVDFQAMWYTDEDHGIASSTAHQEIYTHMSHFIKQCFSLP
# notes: range 39-766; Monomeric by AUC
# Target: the molecule itself
# Test: velocity AUC in PBS (self-association)
protein,measurement,value
B1,binding result,no binding (tested: 0.1 to 0.2 mg/ml (1.2 uM to 2.3 uM))
